Measured values published in patent US12611443B2, “Methods and compositions related to therapeutic peptides for cancer therapy” (THE UNIVERSITY OF CHICAGO, priority 2018, dated 2026).
Entries after “also recorded” stand apart in the source; their conditions may differ.

Key:
cancer cells = test: CD95 protein overexpression in cancer cells, viability in absence of ELANE (calcein-AM); type: cell-based, human; details: for cancer cell death/toxicity on expression in the absence of ELANE: transient overexpression
Method: FIGS. 1A-1K. ELANE cleaves CD95 to selectively kill cancer cells. (A): Heatmap summary of ELANE's effects on survival, stress, and apoptosis pathways in cancer cells and healthy cells. (B-C): Cancer cells were treated with ELANE (100 nM) and CD95 cleavage was assessed by western blotting using anti-N-terminal (B) or anti-C-terminal antibodies (C). *, lower molecular weight CD95 fragment. (D): Cancer cells or non-cancer cells were transduced to overexpress CD95 proteins, and effects on ELANE-mediated apoptosis were quantified by ANXAS at 30 min. n=2/group. See FIG. 1I for transduction and CD95 over-expression. (E): Cleavage of recombinant human CD95 N-terminal (aa 1-173) or C-terminal (aa 212-335) proteins by ELANE was assessed by SDS-PAGE and Coomassie blue staining. (F): Bands from (E) were digested with trypsin and analyzed by mass spectrometry to identify putative ELANE cleavage sites (i.e., peptides with non-tryptic ends). Major non-tryptic peptides were quantified by ion chromatograms. (G): Schematic of ELANE cleavage sites in CD95. […] (H): Cleavage of recombinant peptides corresponding to aa 214-231 and aa 317-335 in CD95 by ELANE was monitored by mass spectrometry. (I): Cancer cells or non-cancer cells were treated with fluorescein-labeled ELANE for 10 min and uptake was visualized by immunofluorescence. (J): ELANE catalytic activity in cancer cell lysates following exposure to ELANE for 30 mins in the presence and absence of Dynasore (60 μM endocytosis inhibitor). Effect of Dynasore on cancer cell killing capability of ELANE (measured by calcein-AM). n=6/group. (K): Cancer cells or non-cancer cells were transduced to overexpress various CD95 proteins, and cell viability in the absence of ELANE was determined by calcein-AM. n=10/group. *, p<0.05 Student's t-test.
(§1) In vitro cell viability assays. […] Luminescence was measured using a Victor X3 luminometer (PerkinElmer).
CD95 overexpression studies. Polycistronic adenoviral vectors were prepared to express the human and mouse CD95 sequences followed by the Encephalomyocarditis virus (EMCV) internal ribosome entry site and dTomato sequence under the control of the cytomegalovirus (CMV) promoter (VectorBuilder). Human and murine cancer cells or normal or non-cancer cells were transduced to over-express full-length CD95, N-terminal CD95 (human: aa 1-209; mouse: aa 1-204), C-terminal CD95 (human: aa 212-335; mouse: aa 204-327), or C-terminal CD95 that mimicked ELANE cleavage at site 1 (human: aa 221-335), site 2 (human: aa 212-331), or both sites (aa 221-331). Cancer cells or normal or non-cancer cells were transduced with adenoviruses at an MOI of 50-250 depending on cell type, and expression of dTomato and CD95 (human: 558814; mouse, mouse: 565130, BD Biosciences) were confirmed by flow cytometry. A vector encoding GFP (Vector Builders) was used as a control.

MDA-MB-231 cells [1] = test: Doxycycline-inducible Tet-on expression of C or C1-2 in MDA-MB-231 cells; type: cell-based, human
Method: (§2) FIG. 4 Inducible Expression System. Scheme of doxycycline inducible Tet-on system to express either C (aa. 157-335) or C1-2 (aa. 221-331). C1-2 (DD containing fragment) upon addition of doxycycline (both in vitro and in vivo).
(§3) FIG. 5 Confirmation of C1-2 expression and cancer cell selective killing. (A) Tet-on C or C1-2 transduced MDA-MB-231 cells were treated with 2 μg/mL doxycycline (2 μg/mL) for 24 h. Cell lysates were collected for western blot. Confirming the expression of C or C1-2 expression. (B) Tet-on C or C1-2 transduced MDA-MB-231 cells were treated with 0.2 or 2 μg/mL doxycycline for 72 h. Cell viability was measured by Calcein AM. […] (C) Tet-on C1-2 transduced MCF10A cells were treated with 2 μg/mL doxycycline. Cell viability was measured at various time points by Calcein AM.
FIG. 6 In vitro testing MDA-MB-231 cell death post C1-2 induction. (A) Various single colony of Tet-on C1-2 transduced MDA-MB-231 cells were treated with 2 μg/mL doxycycline (2 μg/mL) for 72 h. Cell viability was measured by Calcein AM. Different colonies have different susceptibility of death post C1-2 induction. (B) C1-2 expression of various single colony of Tet-on C1-2 transduced MDA-MB-231 cells post doxycycline treatment were measured by western blot (C), and the level at 24 h was correlated with % death (normalized by full length). […] (C) Immunoblot of C1-2 and full length (FL) CD95 expression for various colony.

MCF10A cells = test: Doxycycline-inducible Tet-on expression of C1-2 in MCF10A cells; type: cell-based; details: doxycycline 2 μg/mL
Method: as §2, §3

MDA-MB-231 tumors = test: In vivo testing of Tet-on C1-2 transduced MDA-MB-231 tumors; set-up: species or system nude mouse
Method: FIG. 7 In vivo testing MDA-MB-231 tumor regression post C1-2 induction. (A) Tumor weight. (B) Tumor cells (millions) count (post-ficoll gradient). (C) Percent immune cells in tumors (mouse CD45+) measurement by flow cytometry.
In Vivo testing. Mammary glands of a nude mouse model were injected with 2 million Tet-on C1-2 transduced MDA-MB-231 cells. Once tumors reach approximately 80 to 100 mm3 mice are feed either a doxycycline diet or are injected intraperitoneally with doxycycline (50 mg/ml) every 5 days to induce Tet-on system. Tumor growth is monitored. Tumors are isolated and digested on day 21 post doxycycline treatment and tumor weights are measured, tumor cell numbers are counted, and CD45+ cells are measured by flow cytometry.

MDA-MB-231 cells [2] = test: Cell viability of MDA-MB-231 cells treated with purified ELANE or ECP; type: cell-based, human
Method: as §1

[3] = tested on: Human monocyte-derived macrophages (HMDMs); test: Cell viability of HMDMs treated with purified ELANE or ECP; type: cell-based
Method: Primary human blood-derived cells.
as §1

ELANE = target: T1, ELANE (Homo sapiens, UniProt P08246); test: ELANE activity assay with ECP (chromogenic substrate); type: biochemical; details: type II allosteric activator
T1 sequence (P08246 30-267): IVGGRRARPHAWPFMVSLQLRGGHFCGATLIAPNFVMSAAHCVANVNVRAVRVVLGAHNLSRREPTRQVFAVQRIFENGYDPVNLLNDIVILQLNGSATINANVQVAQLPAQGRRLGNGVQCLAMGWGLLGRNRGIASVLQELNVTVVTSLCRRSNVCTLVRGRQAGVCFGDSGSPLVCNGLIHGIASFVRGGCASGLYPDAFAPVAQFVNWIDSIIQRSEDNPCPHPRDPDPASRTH
Method: ELANE activity assays. Catalytic activity was measured using the chromogenic substrate N-Methoxysuccinyl-Ala-Ala-Pro-Val p-nitroanilide (Sigma, 100 μg/mL) according to manufacturer's protocol. Absorbance was measured at 405 nm using an accuSkan GO UV/Vis microplate spectrophotometer (ThermoFisher Scientific). For inactivation, ELANE was incubated with PMSF (1 mM, Sigma) or A1AT (42 nM, Athens Research & Technology) for 2 h. Residual PMSF was eliminated with a PD-10 desalting column (GE Healthcare Life). To monitor the effect of ECP on ELANE activity, ELANE (10 nM) was incubated with various doses of ECP (0-180 nM) at various substrate concentrations (0-1.7 mM).
Statistics. With the exception of proteomics studies, statistical significance was determined with the Student's two-tailed, unpaired t-test. Linear regression, Michaelis-Menten, and hyperbolic curve fittings were performed using Prism v.7 software.

B1: C1-2: hCD95 C-terminal peptide aa 221-331 mimicking ELANE cleavage at both sites; death domain containing fragment (protein)
chain: AINLSDVDLSKYITTIAGVMTLSQVKGFVRKNGVNEAKIDEIKNDNVQDTAEQKVQLLRNWHQLHGKKEAYDTLIKDLKKANLCTLAEKIQTIILKDITSDSENSNFRNEI
- killing mechanism induced by expression (cancer cells; MDA-MB-231 cells): induced the same killing mechanism as treating these cells with ELANE
- cancer cell death/toxicity on expression in the absence of ELANE (cancer cells): toxic
- cancer cell death/toxicity on expression in the absence of ELANE (cancer cells; listed as aa. 221-331 of SEQ ID NO:1): induced cancer cell death in the absence of ELANE
- selective killing of cancer cells by expression (MDA-MB-231 cells [1]; FIG. 5A-5C): can selectively kill cancer cells
- cell death/apoptosis on doxycycline-induced expression (MDA-MB-231 cells [1]; Tet-on MDA-MB-231, doxycycline 0.2 or 2 μg/mL, 72 h, Calcein AM): induction of cell death in MDA-MB-231 cells; also recorded: underwent apoptosis; also recorded: caused MDA-MB-231 cell death
- correlation of expression level with extent of apoptosis/death (MDA-MB-231 cells [1]; different colonies of MDA-MB-231 cells): significantly and positively correlated; also recorded: correlates with MDA-MB-231 cell death
- cell death/apoptosis on doxycycline-induced expression (MCF10A cells): failed to induce apoptosis; also recorded: did not cause cell death
- tumor growth after doxycycline induction (MDA-MB-231 tumors; doxycycline IP or through the food): induced MDA-MB-231 tumor regression; also recorded: lessened tumor growth
- CD45+ immune cells in tumors (MDA-MB-231 tumors; flow cytometry): increased the number of CD45^+ immune cells in tumors

B2: ECP: eosinophil cationic protein, a pore-forming protein (protein)
chain: RPPQFTRAQWFAIQHISLNPPRCTIAMRAINNYRWRCKNQNTFLRTTFANVVNVCGNQSIRCPHNRTLNNCHRSRFRVPLLHCDLINPGAQNISNCTYADRPGRRFYVVACDNRDPRDSPRYPVVPVHLDTTI
- killing at concentration present in PMN media, alone (MDA-MB-231 cells [2]; ECP 0.05 μg/mL): could not kill these cells alone
- effect on killing capability of ELANE (MDA-MB-231 cells [2]; ELANE 0.25 μg/mL and ECP 0.05 μg/mL): significantly enhanced the selective killing capability of ELANE
- cell viability, purified protein (MDA-MB-231 cells [2]; MDA-MB-231): killed MDA-MB-231 cells only at doses that were also toxic to HMDMs
- cell viability, purified protein [3]: toxic to HMDMs
- increase of ELANE catalytic turnover (kcat) (ELANE): ~12 fold
